Where two headings read alike, the source gives them in different places. Blank lines part the entries; values can stand above or below the molecule they belong to.
Key:
[1] = molecular target: IL-13Rα1 monomer (IL-13Rα1 extracellular domain) (human) (UniProt P78552); assay: SPR, IL-13Rα1 immobilised, 1:1 model
[2] = molecular target: Cy5-IL-13Rα1 (Cy5 labeled IL-13Rα1) (human) (UniProt P78552); assay: TR-FRET assay 1, competition with 10 nM Eu-IL-13 for 10 nM Cy5-IL-13Rα1
[3] = molecular target: IL-13Rα1 + IL-4R co-immobilised on one sensor chip surface (high affinity receptor) (human) (UniProt P78552); assay: SPR, IL-13Rα1 and IL-4R co-immobilised, heterogeneous ligand model, component 1 (lower affinity)
[4] = molecular target: IL-13Rα1 + IL-4R co-immobilised on one sensor chip surface (high affinity receptor) (human) (UniProt P78552); assay: SPR, IL-13Rα1 and IL-4R co-immobilised, heterogeneous ligand model, component 2 (high affinity); column head misprinted 'Kd 2 × 10^6'
[5] = molecular target: IL-13Rα1 + IL-4R co-immobilised on one sensor chip surface (high affinity receptor) (human) (UniProt P78552); assay: SPR, IL-13Rα1 and IL-4R co-immobilised, against IL-13Rα1 alone
[6] = molecular target: Cy5-IL-13Rα1 (Cy5 labeled IL-13Rα1) (human) (UniProt P78552); assay: TR-FRET assay 1, competition with Eu-IL-13 for Cy5-IL-13Rα1, Kd calculated from IC50
[7] = molecular target: Cy5-IL-13Rα1 plus IL-4R (500 nM) in solution (human) (UniProt P78552); assay: TR-FRET assay 1, competition with 10 nM Eu-IL-13, 10 nM Cy5-IL-13Rα1, 500 nM IL-4R
[8] = molecular target: IL-13Rα1 monomer (IL-13Rα1 extracellular domain) (human) (UniProt P78552); assay: SPR, IL-13Rα1 immobilised
[9] = molecular target: Cy5-IL-13Rα1 plus IL-4R (500 nM) in solution (human) (UniProt P78552); assay: TR-FRET assay 1, competition with Eu-IL-13, with 500 nM IL-4R, Kd calculated from IC50
[10] = molecular target: IL-13Rα1 + IL-4R co-immobilised on one sensor chip surface (high affinity receptor) (human) (UniProt P78552); assay: SPR, IL-13Rα1 and IL-4R co-immobilised, heterogeneous ligand model, component 2 (high affinity)
[11] = molecular target: IL-13R110Q/IL-13Rα1 binary complex (human) (UniProt P35225); assay: SPR, IL-13Rα1 immobilised, 8 nM IL-13R110Q in buffer, IL-4R injected, 1:1 model
[12] = molecular target: IL-13R110Q/IL-13Rα1 binary complex (human) (UniProt P35225); assay: as above; remark: listed apart in the source
[13] = molecular target: T1, Eu-IL-13 (europium chelate labeled IL-13) (human, UniProt P35225 35-146, limits assumed, europium chelate (Eu) label, directly labeled; site not stated); assay: TR-FRET assay 1, direct: Cy5-IL-13Rα1 titrated into 10 nM Eu-IL-13, no IL-4R
T1 construct: also called Eu-labeled IL-13
Procedure: (§1) All TR-FRET experiments were performed on a 384-well black plate (Corning Costar, Acton, Mass.) in 20 μL final volume of PBS plus 0.1% BSA. For example, excitation and emission conditions for TR-FRET assay 1 and 2 were 345 nm and 665 nm, respectively. All TR-FRET measurements were taken using an Envision plate reader (Perkin Elmer) using the TR-FRET mode.
Binding between IL-13 and IL-13Rα¹ was analyzed using Eu-IL-13 (Eu=Europium chelate, FRET donor) and Cy5-IL-13Rα1 (Cy5=Cyanine dye, FRET acceptor) (schematic shown in FIG. 3) described in Example 5. Affinity measurements were performed by adding various concentrations of Cy5-IL-13Rα1 in the presence of 10 nM Eu-IL-13 with and without 500 nM IL-4R.

[14] = molecular target: T1, Eu-IL-13 (europium chelate labeled …); assay: TR-FRET assay 1, competition with 10 nM Cy5-IL-13Rα1 for 10 nM Eu-IL-13, no IL-4R
Procedure: as §1
(§2) Assays were performed as described in Example 5. Competition experiments were performed by adding various concentrations of unlabeled IL-13, IL-13R110Q, or IL-13Rα1 to the Eu-IL-13 (10 nM)/Cy5-IL-13Rα1 (10 nM) binary complex with or without IL-4R (500 nM).
(§3) To confirm the dissociation constant of Cy5-IL-13Rα1, a competition experiment was performed using unlabeled IL-13Rα1.

[15] = molecular target: T2, Eu-IL-13 plus IL-4R (500 nM) in solution (human, UniProt P35225 35-146; P24394 26-232, limits assumed, europium chelate label; site not stated); assay: TR-FRET assay 1, competition with 10 nM Cy5-IL-13Rα1 for 10 nM Eu-IL-13, with 500 nM IL-4R
T2 construct: The partners of IL-13Rα1 in the ternary format of TR-FRET assay 1
Procedure: as §1, §2, §3

Sequence of IL-13R110Q/IL-13Rα1 binary complex (human) (P35225 35-146, one chain of several): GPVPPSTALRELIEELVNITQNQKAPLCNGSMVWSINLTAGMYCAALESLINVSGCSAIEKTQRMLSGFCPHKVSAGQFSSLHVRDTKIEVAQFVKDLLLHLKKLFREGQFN
Sequence of IL-13Rα1 + IL-4R co-immobilised on one sensor chip surface (high affinity receptor) (human) (P24394 26-232): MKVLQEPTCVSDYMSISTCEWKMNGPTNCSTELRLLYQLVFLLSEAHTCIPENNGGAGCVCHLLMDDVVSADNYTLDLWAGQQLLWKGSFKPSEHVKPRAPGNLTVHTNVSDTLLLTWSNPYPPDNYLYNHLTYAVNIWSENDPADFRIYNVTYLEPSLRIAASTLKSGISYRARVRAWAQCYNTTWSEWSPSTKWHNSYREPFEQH
T1 sequence (P35225 other isoform, or with tags, fused parts or gaps limits assumed, form in doubt): as the sequence (P35225 35-146, one chain of several) above, with Q110R counted along it
Sequence of Cy5-IL-13Rα1 plus IL-4R (500 nM) in solution (human) (P24394 26-232): as the sequence (P24394 26-232) above
T2 sequence (P35225 other isoform, or with tags, fused parts or gaps limits assumed, form in doubt, chain 1 of 2): as the sequence (P35225 35-146, one chain of several) above, with Q110R counted along it
T2 sequence (P24394 26-232 limits assumed, form in doubt, chain 2 of 2): as the sequence (P24394 26-232) above

Kd [1]: 8.93 nM
koff [1]: 0.015 s⁻¹
kon [1]: 1.68e+06 M⁻¹ s⁻¹
IC50 [2]: 27 nM
Kd [3]: 14.5 nM
koff [3]: 0.018 s⁻¹
kon [3]: 1.24e+06 M⁻¹ s⁻¹
kon [4]: 3.77e+06 M⁻¹ s⁻¹
fold lower Kd than to IL-13Rα1 alone [5]: 17 fold
Kd [6]: 6.7 nM
IC50 [7]: 12 nM
t½ (decay of binding) [8]: 50 s
Kd [9]: 0.3 nM
Kd [10]: 0.53 nM
koff [10]: 0.002 s⁻¹
Molecule: IL-13R110Q (from UniProt P35225 35-146) (ligand)

EC50 [13]: 10 nM
B1: Cy5-IL-13Rα1 (Cy5 labeled IL-13Rα1) (receptor, human, UniProt P78552 22-343, looked up)
chain: GGGGAAPTETQPPVTNLSVSVENLCTVIWTWNPPEGASSNCSLWYFSHFGDKQDKKIAPETRRSIEVPLNERICLQVGSQCSTNESEKPSILVEKCISPPEGDPESAVTELQCIWHNLSYMKCSWLPGRNTSPDTNYTLYYWHRSLEKIHQCENIFREGQYFGCSFDLTKVKDSSFEQHSVQIMVKDNAGKIKPSFNIVPLTSRVKPDPPHIKNLSFHNDDLYVQWENPQNFISRCLFYEVEVNNSQTETHNVFYVQEAKCENPEFERNVENTSCFMVPGVLPDTLNTVRIRVKTNKLCYEDDKLWSNWSQEMSIGKKRNST
modifications: Cy5 label, directly labeled; site not stated
notes: extracellular domain; also called IL-13R-Cys5; Cy5-IL-13RI1

The remaining lines, values behind:

Molecule: soluble form of carrier-free human IL-4Rα monomer (R&D Systems) (from UniProt P24394 26-232) (receptor)
koff [11]: 0.005 s⁻¹
Kd [12]: 115 nM
koff [12]: 0.0051 s⁻¹
kon [12]: 44000 M⁻¹ s⁻¹

B2: IL-13Rα1 monomer (IL-13Rα1 extracellular domain) (receptor, human, UniProt P78552 22-343, looked up)
chain: B1 chain
notes: extracellular domain; Expressed and purified as in Yang et al. 2006; also called IL-13RI1; IL-13R1
IC50 [14]: 20 nM
IC50 [15]: 11 nM
